What was measured:
Assay in all cases: holdup assay
Set-up in all cases: key: below the threshold = too weak to quantify, mostly under pKd 3.1 to 4
MPDZ_5, O75970 = biological target: T1, MPDZ_5, O75970
T1 sequence (O75970 695-796, limits assumed, looked up): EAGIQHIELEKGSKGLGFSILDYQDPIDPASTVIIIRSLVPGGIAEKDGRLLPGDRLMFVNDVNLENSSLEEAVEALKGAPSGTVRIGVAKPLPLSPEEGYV

TJP1_3, Q07157 = biological target: TJP1_3, Q07157
TIAM2, Q8IVF5 = biological target: T2, TIAM2, Q8IVF5
T2 sequence (Q8IVF5 885-986, limits assumed, looked up): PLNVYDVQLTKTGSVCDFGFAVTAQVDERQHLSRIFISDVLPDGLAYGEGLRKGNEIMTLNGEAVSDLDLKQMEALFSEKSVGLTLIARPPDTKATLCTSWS

NHERF4_1, Q86UT5-2 = biological target: NHERF4_1, Q86UT5-2
SHANK1, Q9Y566 = biological target: T3, SHANK1, Q9Y566
T3 sequence (Q9Y566 658-767, limits assumed, looked up): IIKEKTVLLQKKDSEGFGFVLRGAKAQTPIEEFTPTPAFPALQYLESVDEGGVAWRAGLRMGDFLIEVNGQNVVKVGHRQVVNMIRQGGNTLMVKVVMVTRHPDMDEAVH

Inadl_3, Q8NI35 = biological target: Inadl_3, Q8NI35
DLG5_1, Q8TDM6 = biological target: DLG5_1, Q8TDM6
GOPC, Q9HD26 = biological target: GOPC, Q9HD26
SNX27, Q96L92 = biological target: SNX27, Q96L92
GORASP2, Q9H8Y8 = biological target: GORASP2, Q9H8Y8
PARD3B_1, Q8TEW8 = biological target: T4, PARD3B_1, Q8TEW8
T4 sequence (Q8TEW8 196-299, limits assumed, looked up): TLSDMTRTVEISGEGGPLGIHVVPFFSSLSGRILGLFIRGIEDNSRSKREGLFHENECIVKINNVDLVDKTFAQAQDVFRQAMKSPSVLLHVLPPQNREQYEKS

AHNAK1, Q09666 = biological target: AHNAK1, Q09666
DLG4_3, P78352 = biological target: DLG4_3, P78352
PICK1, Q9NRD5 = biological target: PICK1, Q9NRD5
ARHGEF12, Q9NZN5-2 = biological target: ARHGEF12, Q9NZN5-2
DLG4_2, P78352 = biological target: DLG4_2, P78352
DLG1_2, Q12959 = biological target: DLG1_2, Q12959
DFNB31_2, Q9P202 = biological target: T5, DFNB31_2, Q9P202
T5 sequence (Q9P202 274-371, limits assumed, looked up): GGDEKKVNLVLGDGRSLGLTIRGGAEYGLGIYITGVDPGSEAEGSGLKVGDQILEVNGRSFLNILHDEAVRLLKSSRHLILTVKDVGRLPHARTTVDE

IL16_3, Q14005 = biological target: IL16_3, Q14005
SNTG2, Q9NY99 = biological target: T6, SNTG2, Q9NY99
T6 sequence (Q9NY99 68-166, limits assumed, looked up): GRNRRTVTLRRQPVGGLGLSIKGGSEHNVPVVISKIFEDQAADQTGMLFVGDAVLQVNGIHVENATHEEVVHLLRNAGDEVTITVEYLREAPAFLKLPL

NHERF3_1, Q5T2W1 = biological target: T7, NHERF3_1, Q5T2W1
T7 sequence (Q5T2W1 4-100, limits assumed, looked up): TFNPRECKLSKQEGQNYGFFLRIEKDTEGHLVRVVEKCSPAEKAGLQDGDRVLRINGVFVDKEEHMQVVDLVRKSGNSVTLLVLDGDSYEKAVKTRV

SCRIB_2, Q14160 = biological target: SCRIB_2, Q14160
DLG2_3, Q15700 = biological target: DLG2_3, Q15700
GRIP2_5, Q9C0E4 = biological target: GRIP2_5, Q9C0E4
GRID2IP_2, A4D2P6 = biological target: GRID2IP_2, A4D2P6
APBA1_1, Q02410 = biological target: T8, APBA1_1, Q02410
T8 sequence (Q02410 651-752, limits assumed, looked up): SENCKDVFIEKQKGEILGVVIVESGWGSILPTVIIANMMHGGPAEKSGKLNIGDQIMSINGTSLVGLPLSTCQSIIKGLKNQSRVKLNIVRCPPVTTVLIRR

GRIP2_3, Q9C0E4 = biological target: GRIP2_3, Q9C0E4
SNTA1, Q13424 = biological target: T9, SNTA1, Q13424
T9 sequence (Q13424 82-180, limits assumed, looked up): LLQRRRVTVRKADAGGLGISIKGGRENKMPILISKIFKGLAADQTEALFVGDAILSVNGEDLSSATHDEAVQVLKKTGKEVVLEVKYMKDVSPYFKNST

Inadl_2, Q8NI35 = biological target: Inadl_2, Q8NI35
[1] = plain residues with an end cap or a label only (N-terminal biotin on a linker: ado-ado)
[2] = plain residues with an end cap or a label only (N-terminal biotin on a linker: ttds)
[3] = plain residues with an end cap or a label only (N-terminal biotin on a linker: ahx)

Chain of PICK1, Q9NRD5 (Q9NRD5 17-115): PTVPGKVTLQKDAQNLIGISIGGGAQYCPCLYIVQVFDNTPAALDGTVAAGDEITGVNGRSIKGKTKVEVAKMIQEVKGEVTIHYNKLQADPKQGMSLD
Chain of Inadl_2, Q8NI35 (Q8NI35 238-335): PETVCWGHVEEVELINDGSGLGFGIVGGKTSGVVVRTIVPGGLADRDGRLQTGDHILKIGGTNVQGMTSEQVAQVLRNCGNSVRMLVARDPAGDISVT
Chain of DLG4_3, P78352 (P78352 306-403): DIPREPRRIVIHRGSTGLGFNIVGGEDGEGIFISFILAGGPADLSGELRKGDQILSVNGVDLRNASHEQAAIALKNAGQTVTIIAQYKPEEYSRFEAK
Chain of AHNAK1, Q09666 (Q09666 4-100): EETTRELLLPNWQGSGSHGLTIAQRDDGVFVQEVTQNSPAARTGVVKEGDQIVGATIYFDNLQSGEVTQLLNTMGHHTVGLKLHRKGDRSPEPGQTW
Chain of DLG4_2, P78352 (P78352 155-259): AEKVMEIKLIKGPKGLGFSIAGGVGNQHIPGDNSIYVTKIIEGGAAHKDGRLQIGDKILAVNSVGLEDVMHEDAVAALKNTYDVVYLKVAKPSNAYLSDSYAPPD
Chain of GRIP2_3, Q9C0E4 (Q9C0E4 238-339): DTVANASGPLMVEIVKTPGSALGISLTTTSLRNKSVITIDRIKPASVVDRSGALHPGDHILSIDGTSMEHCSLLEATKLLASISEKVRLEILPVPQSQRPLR
Chain of TJP1_3, Q07157 (Q07157 416-512): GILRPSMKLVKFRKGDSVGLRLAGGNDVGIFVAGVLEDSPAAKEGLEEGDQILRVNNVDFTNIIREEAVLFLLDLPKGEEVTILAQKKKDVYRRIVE
Chain of GRID2IP_2, A4D2P6 (A4D2P6 272-370): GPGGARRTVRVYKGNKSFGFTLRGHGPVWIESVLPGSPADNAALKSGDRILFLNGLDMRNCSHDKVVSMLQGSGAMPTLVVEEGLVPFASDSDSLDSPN
Chain of IL16_3, Q14005 (Q14005 1107-1207): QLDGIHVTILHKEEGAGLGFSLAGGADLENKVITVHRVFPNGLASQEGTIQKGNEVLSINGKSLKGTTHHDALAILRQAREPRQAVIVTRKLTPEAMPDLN
Chain of ARHGEF12, Q9NZN5-2 (Q9NZN5 other isoform, or with tags, fused parts or gaps): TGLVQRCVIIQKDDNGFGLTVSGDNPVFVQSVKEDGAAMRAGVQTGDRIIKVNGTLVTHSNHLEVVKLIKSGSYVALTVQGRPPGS
Chain of DLG1_2, Q12959 (Q12959 314-412): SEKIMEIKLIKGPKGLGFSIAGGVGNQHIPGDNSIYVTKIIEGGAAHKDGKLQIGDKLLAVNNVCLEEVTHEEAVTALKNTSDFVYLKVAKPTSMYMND
Chain of SCRIB_2, Q14160 (Q14160 857-960): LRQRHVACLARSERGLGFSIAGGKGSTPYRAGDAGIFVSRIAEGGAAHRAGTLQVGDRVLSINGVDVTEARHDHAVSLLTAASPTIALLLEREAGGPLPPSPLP
Chain of Inadl_3, Q8NI35 (Q8NI35 359-469): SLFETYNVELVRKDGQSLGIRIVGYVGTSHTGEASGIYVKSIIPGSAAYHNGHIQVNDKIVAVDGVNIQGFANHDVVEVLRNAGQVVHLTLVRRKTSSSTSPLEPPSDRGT
Chain of NHERF4_1, Q86UT5-2 (Q86UT5 other isoform, or with tags, fused parts or gaps): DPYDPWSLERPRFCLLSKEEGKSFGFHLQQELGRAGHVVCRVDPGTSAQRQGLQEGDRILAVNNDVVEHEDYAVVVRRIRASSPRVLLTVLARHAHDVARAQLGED
Chain of DLG5_1, Q8TDM6 (Q8TDM6 617-713): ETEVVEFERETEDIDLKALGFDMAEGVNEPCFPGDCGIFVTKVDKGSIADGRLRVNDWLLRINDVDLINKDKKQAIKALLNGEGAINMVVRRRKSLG
Chain of GRIP2_5, Q9C0E4 (Q9C0E4 544-642): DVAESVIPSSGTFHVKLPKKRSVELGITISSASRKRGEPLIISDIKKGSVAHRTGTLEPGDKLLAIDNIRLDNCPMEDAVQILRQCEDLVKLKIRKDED

B1: SLC1A3, P43003 (peptide)
chain: EKPIDSETKM
With B1 the pKd (MPDZ_5, O75970; [1]) was “below the threshold”, the pKd (TJP1_3, Q07157; [1]) was “below the threshold” and the pKd (TIAM2, Q8IVF5; [1]) was “below the threshold”. The pKd (NHERF4_1, Q86UT5-2; [1]) was “below the threshold”, the pKd (SHANK1, Q9Y566; [1]) was 3.76 and the pKd (Inadl_3, Q8NI35; [1]) was “below the threshold”. For the same binder, the pKd (DLG5_1, Q8TDM6; [1]) was “below the threshold”, the pKd (GOPC, Q9HD26; [1]) was “below the threshold” and the pKd (SNX27, Q96L92; [1]) was 5.18. The pKd (GORASP2, Q9H8Y8; [1]) was “below the threshold”, the pKd (PARD3B_1, Q8TEW8; [1]) was “below the threshold” and the pKd (AHNAK1, Q09666; [1]) was “below the threshold”. For the same binder, the pKd (DLG4_3, P78352; [1]) was “below the threshold”, the pKd (PICK1, Q9NRD5; [1]) was “below the threshold” and the pKd (ARHGEF12, Q9NZN5-2; [1]) was “below the threshold”. For the same binder, the pKd (DLG4_2, P78352; [1]) was “below the threshold”, the pKd (DLG1_2, Q12959; [1]) was “below the threshold” and the pKd (DFNB31_2, Q9P202; [1]) was “below the threshold”. The pKd (IL16_3, Q14005; [1]) was “below the threshold”, the pKd (SNTG2, Q9NY99; [1]) was “below the threshold” and the pKd (NHERF3_1, Q5T2W1; [1]) was 5.23. The pKd (SCRIB_2, Q14160; [1]) was “below the threshold”, the pKd (DLG2_3, Q15700; [1]) was “below the threshold” and the pKd (GRIP2_5, Q9C0E4; [1]) was “below the threshold”. The pKd (GRID2IP_2, A4D2P6; [1]) was “below the threshold”, the pKd (APBA1_1, Q02410; [1]) was “below the threshold” and the pKd (GRIP2_3, Q9C0E4; [1]) was “below the threshold”. The pKd (SNTA1, Q13424; [1]) was “below the threshold” and the pKd (Inadl_2, Q8NI35; [1]) was “below the threshold”.

B2: RALBP1, Q15311 (peptide)
chain: PSRDRKETSI
B2 was tested, and the pKd (MPDZ_5, O75970; [2]) was “below the threshold”, the pKd (TJP1_3, Q07157; [2]) was “below the threshold” and the pKd (TIAM2, Q8IVF5; [2]) was “below the threshold”. For the same binder, the pKd (NHERF4_1, Q86UT5-2; [2]) was 3.36, the pKd (SHANK1, Q9Y566; [2]) was “below the threshold” and the pKd (Inadl_3, Q8NI35; [2]) was “below the threshold”. The pKd (DLG5_1, Q8TDM6; [2]) was “below the threshold”, the pKd (GOPC, Q9HD26; [2]) was 3.6 and the pKd (SNX27, Q96L92; [2]) was 4.23. The pKd (GORASP2, Q9H8Y8; [2]) was “below the threshold”, the pKd (PARD3B_1, Q8TEW8; [2]) was 3.76 and the pKd (AHNAK1, Q09666; [2]) was “below the threshold”. The pKd (DLG4_3, P78352; [2]) was 4.87, the pKd (PICK1, Q9NRD5; [2]) was “below the threshold” and the pKd (ARHGEF12, Q9NZN5-2; [2]) was 4.06. For the same binder, the pKd (DLG4_2, P78352; [2]) was 4.58, the pKd (DLG1_2, Q12959; [2]) was 4.7 and the pKd (DFNB31_2, Q9P202; [2]) was “below the threshold”. For the same binder, the pKd (IL16_3, Q14005; [2]) was “below the threshold”, the pKd (SNTG2, Q9NY99; [2]) was 4.32 and the pKd (NHERF3_1, Q5T2W1; [2]) was 3.68. The pKd (SCRIB_2, Q14160; [2]) was 3.75, the pKd (DLG2_3, Q15700; [2]) was 4.64 and the pKd (GRIP2_5, Q9C0E4; [2]) was “below the threshold”. For the same binder, the pKd (GRID2IP_2, A4D2P6; [2]) was 3.69, the pKd (APBA1_1, Q02410; [2]) was “below the threshold” and the pKd (GRIP2_3, Q9C0E4; [2]) was “below the threshold”. For the same binder, the pKd (SNTA1, Q13424; [2]) was 4.06 and the pKd (Inadl_2, Q8NI35; [2]) was “below the threshold”.

B3: CNTNAP4, Q9C0A0 (peptide)
chain: VNENQKEYFF
With B3 the pKd (MPDZ_5, O75970; [3]) was 4.22, the pKd (TJP1_3, Q07157; [3]) was “below the threshold” and the pKd (TIAM2, Q8IVF5; [3]) was 4.62. For the same binder, the pKd (NHERF4_1, Q86UT5-2; [3]) was 3.51, the pKd (SHANK1, Q9Y566; [3]) was “below the threshold” and the pKd (Inadl_3, Q8NI35; [3]) was 3.95. The pKd (DLG5_1, Q8TDM6; [3]) was “below the threshold”, the pKd (GOPC, Q9HD26; [3]) was “below the threshold” and the pKd (SNX27, Q96L92; [3]) was 3.83. For the same binder, the pKd (GORASP2, Q9H8Y8; [3]) was “below the threshold”, the pKd (PARD3B_1, Q8TEW8; [3]) was 4.57 and the pKd (AHNAK1, Q09666; [3]) was “below the threshold”. The pKd (DLG4_3, P78352; [3]) was “below the threshold”, the pKd (PICK1, Q9NRD5; [3]) was “below the threshold” and the pKd (ARHGEF12, Q9NZN5-2; [3]) was “below the threshold”. For the same binder, the pKd (DLG4_2, P78352; [3]) was “below the threshold”, the pKd (DLG1_2, Q12959; [3]) was “below the threshold” and the pKd (DFNB31_2, Q9P202; [3]) was “below the threshold”. For the same binder, the pKd (IL16_3, Q14005; [3]) was “below the threshold”, the pKd (SNTG2, Q9NY99; [3]) was “below the threshold” and the pKd (NHERF3_1, Q5T2W1; [3]) was 4.91. For the same binder, the pKd (SCRIB_2, Q14160; [3]) was “below the threshold”, the pKd (DLG2_3, Q15700; [3]) was “below the threshold” and the pKd (GRIP2_5, Q9C0E4; [3]) was “below the threshold”. For the same binder, the pKd (GRID2IP_2, A4D2P6; [3]) was “below the threshold”, the pKd (APBA1_1, Q02410; [3]) was “below the threshold” and the pKd (GRIP2_3, Q9C0E4; [3]) was “below the threshold”. The pKd (SNTA1, Q13424; [3]) was “below the threshold” and the pKd (Inadl_2, Q8NI35; [3]) was 5.4.

From article PMC9482650, “Quantitative fragmentomics allow affinity mapping of interactomes” (Nature Communications, 2022)
